Tests used:
GSK-3 beta [1] = experiment: In vitro binding of GSK-3 beta to GID-2/his on nickel agarose; settings: 25 nanomolar GSK-3 beta
Method: A cDNA (GID-2) encoding amino acid residues 320-429 of Xaxin was cloned into pET29b (Novagen, Madison, Wis.) in frame with the His-epitope tag. The resulting encoded GID-2/his fusion protein was expressed in BL2I/DE3 cells and purified on nickel agarose according to standard procedures. Purified GID-2/his was added to a reaction cocktail having a final volume of 20 microliters and containing 25 nanomolar recombinantly-generated GSK-3 beta in GSK-3 assay buffer, as described (Klein et al., 1996, Proc. Natl. Acad. Sci. USA 93:8455-8459). This reaction mixture was incubated at 0° C. for one hour. After this incubation period, half of the mixture was assayed for GSK-3 beta activity, and the other half was incubated with nickel-agarose at 4° C. for one hour with rotation. The agarose was washed three times using PBS, and then Laemmli sample buffer was added. The samples were boiled for five minutes and then subjected to immunoblotting using anti-GSK-3 beta antibody.
(§1) GSK-3 beta (25 nanomolar) was incubated with GID-2/his (up to 200-fold molar excess), and each mixture was assayed to detect either protein kinase activity or, in parallel, protein-protein interaction. Interaction between GSK-3 beta and GID-2/his was detected by purification on nickel agarose followed by immunoblotting with GSK-3 beta-specific antibodies. […]

GSK-3 beta [2] = experiment: In vitro GSK-3 beta activity assay with purified GID-2/his; format: biochemical
Method: (§2) In ovo phosphorylation of tau by GSK-3 beta was performed by microinjection of tau protein into oocytes expressing GSK-3 beta and Xaxin constructs. After 90 minutes, oocytes were homogenized and tau phosphorylation was analyzed in western blots using phospho-specific antibodies as described (Hedgepeth et al., 1997, Develop. Biol. 185:82-91). In vitro assays for GSK-3 beta activity were performed as described (Klein et al., 1996, Proc. Natl. Acad. Sci. USA 93:8455-8459). Recombinant GID-2/his protein (described below) was purified by affinity chromatography and added to in vitro assays at selected concentrations.
A cDNA (GID-2) encoding amino acid residues 320-429 of Xaxin was cloned into pET29b (Novagen, Madison, Wis.) in frame with the His-epitope tag. The resulting encoded GID-2/his fusion protein was expressed in BL2I/DE3 cells and purified on nickel agarose according to standard procedures. […]
as §1

FL Xaxin = target: T1, FL Xaxin (Xenopus laevis, UniProt Q9YGY0); experiment: Yeast two hybrid assay, interaction with FL Xaxin; format: binding; settings: beta-galactosidase filter assay in S. cerevisiae
T1 construct: expressed in transfected cells; host or cells: Saccharomyces cerevisiae
Text: FL Xaxin was cloned in frame with the GAL4 DNA binding domain (BD) in plasmid pAS2-1 (Clontech) to yield BD plasmid. Expression of BD plasmid yielded a Xaxin-GAL4 fusion protein. FL Xaxin, deltaDIX Xaxin, and a fragment (designated “AID”) encoding amino acid residues 489-777 of Xaxin were cloned in frame with the GAL4 transcriptional activation domain (AD) in the vector pACT2 to yield AD plasmids. Yeast were transformed with BD and AD plasmids using previously described protocols (Clontech, Palo Alto, Calif.). Transformed colonies were selected and assayed for beta-galactosidase activity in order to detect interacting proteins. In addition, three Xenopus axin partial length cDNAs (designated Y2H 2, Y2H 6, Y2H 7; all in plasmid pACT2) isolated from a previous yeast two hybrid screen (Hedgepeth et al., 1999, Mech. Develop. 80:147-151) were analyzed. Purification of GID
Using the yeast two hybrid assay, the ability of axin to bind with itself, with other members of the wnt pathway, or with the G(alpha)q subunit of heterotrimeric G-proteins, was investigated. […]
Saccharomyces cerevisiae cells were transformed with the bait vector and with one of the target vectors. Interaction was assessed using a filter assay to detect beta-galactosidase activity, as described (Fields et al., 1989, Nature 340:245-247; Harper et al., 1993, Cell 75:805-816). […]

beta-catenin = beta-catenin protein accumulation in Xenopus oocytes (immunoblot); format: cell-based; settings: construct mRNA expressed in Xenopus oocytes
Method: FIG. 2A is an image of an immunoblot of Xenopus cytoplasmic extracts obtained from Xenopus embryos in which beta-catenin was expressed, using an antibody which binds specifically with beta-catenin (described in McCrea et al., 1993, J. Cell. Biol. 123:477-84). The embryo corresponding to lane 2 was incubated in the presence of 20 millimolar LiCI. Extracts corresponding to lanes 3-5, 7, and 8 were obtained from embryos in which full-length (lane 8) Xaxin or the C-term (lane 3), GID1 (“GID”; lanes 4 and 7), or N-term (lane 5) fragments of Xaxin were expressed.
Although endogenous GSK-3 beta is not present at sufficient levels to detect using the tau assay, inhibition of GSK-3 beta is known to cause stabilization of cytoplasmic beta-catenin (Cadigan et al., 1997, Genes Dev. 11:3286-3305; Miller et al., 1996, Genes Develop. 10:2527-2539), and this serves as a widely used assay for downstream activation of wnt signaling. Inhibition of endogenous GSK-3 beta activity also causes stabilization of beta-catenin in Xenopus embryos and oocytes (Hedgepeth et al., 1997, Develop. Biol. 185:82-91; Yost et al., 1998, Cell 93:1031-1041; Yost et al., 1996, Genes Develop. 10:1443-1454). For this reason, levels of beta-catenin protein were assessed in Xenopus oocytes which had been injected either with full length Xaxin mRNA or with mRNA encoding one of the amino-terminal, GID, or carboxyl-terminal domains of Xaxin.

GSK-3 beta [3] = experiment: Co-immunoprecipitation of GSK-3 beta with Myc-tagged Xaxin constructs in Xenopus oocytes; format: binding; settings: Myc-tagged construct co-expressed with GSK-3 beta in Xenopus oocytes; anti-Myc IP, anti-GSK-3 beta blot
GSK-3 beta [4] = experiment: In ovo tau phosphorylation assay: GSK-3 beta and Xaxin constructs co-expressed in Xenopus oocytes; format: cell-based; settings: construct co-expressed with GSK-3 beta in Xenopus oocytes; tau microinjected; PHF-1 immunoblot
Method: Stage VI Xenopus oocytes were isolated by collagenase treatment (Smith et al., 1994, Meth. Cell Biol. 36:45-58) and were injected with mRNA prepared by in vitro transcription (mMessage Machine™; Ambion, Austin, Tex.). 10 nanoliters of mRNA (containing 1-2 nanograms per nanoliter) was injected for each construct (unless otherwise specified), and the injected oocytes were incubated for 16 hours at 18° C. To analyze the effects of Xaxin constructs on dorsal-ventral pattern formation, Xenopus embryos were injected with 10 nanoliters of mRNA (0.1-0.2 nanogram per nanoliter) into one dorsal or ventral cell of a 4 cell embryo and dorsal axes were assessed at the tadpole stage. For Xaxin co-immunoprecipitation, fertilized eggs were injected with 10 nanoliters of Xaxin tagged with Myc, with hemagglutinin, or with both Myc and hemagglutinin (1 nanogram per nanoliter) and harvested at the blastula stage (stage 8).
as §2
In the experiments presented in this example, a tau phosphorylation assay (described in Hedgepeth et al., 1997, Develop. Biol. 185:82-91) was used to examine the activity of GSK-3 beta in Xenopus oocytes in the presence of full length axin and axin deletion mutants. […] Furthermore, GSK-3 beta-dependent tau phosphorylation occurs in oocytes at the same sites (tau serine residues 396 and 404) that are phosphorylated by GSK-3 beta in vitro and occurs with similarly rapid kinetics.
GSK-3 beta was expressed in oocytes together with Myc-tagged full length Xaxin or with the amino-terminal (amino acid residues 63-288), GID-1 (amino acid residues 277-545), or carboxyl-terminal (amino acid residues 429-713) fragments of Xaxin, as depicted in FIG. 1A. Purified tau protein was then microinjected into the oocytes, and phosphorylation of tau was measured by immunoblotting using antibody PHF-1 or with antibodies that detect all (i.e. phosphorylated and non-phosphorylated) forms of tau.
In order to identify the domain of axin necessary for GSK-3 beta binding, multiple Myc-tagged GID deletion constructs (shown diagrammatically in FIG. 3A) were individually expressed in Xenopus oocytes in which GSK-3 beta was also expressed. Tau protein was microinjected into the oocytes, and immunoblotting was performed using phosphorylation-state-specific tau antibodies. A parallel group of oocytes expressing GSK-3 beta and the Myc-tagged GID deletion constructs were lysed, and GID proteins were immunoprecipitated using a Myc-specific antibody. The presence or absence of GSK-3 beta in GID immunoprecipitates was detected using GSK-3 beta-specific antibodies. GID deletion constructs which included amino acid residues 380-404 of Xaxin (i.e. constructs GID-1, GID-2, GID-4, GID-5, and GID-6) bound GSK-3 beta and inhibited GSK-3 beta mediated tau phosphorylation, as indicated in FIG. 3A. […] However, changing leucine residue 392 in FIG. 3B to proline abolishes its activity.

Xenopus embryos = experiment: Dorsal axis duplication / dorsalization in Xenopus embryos after mRNA injection; format: in vivo; settings: construct expressed in embryos, injection side not stated

T1 sequence (Q9YGY0 whole entry): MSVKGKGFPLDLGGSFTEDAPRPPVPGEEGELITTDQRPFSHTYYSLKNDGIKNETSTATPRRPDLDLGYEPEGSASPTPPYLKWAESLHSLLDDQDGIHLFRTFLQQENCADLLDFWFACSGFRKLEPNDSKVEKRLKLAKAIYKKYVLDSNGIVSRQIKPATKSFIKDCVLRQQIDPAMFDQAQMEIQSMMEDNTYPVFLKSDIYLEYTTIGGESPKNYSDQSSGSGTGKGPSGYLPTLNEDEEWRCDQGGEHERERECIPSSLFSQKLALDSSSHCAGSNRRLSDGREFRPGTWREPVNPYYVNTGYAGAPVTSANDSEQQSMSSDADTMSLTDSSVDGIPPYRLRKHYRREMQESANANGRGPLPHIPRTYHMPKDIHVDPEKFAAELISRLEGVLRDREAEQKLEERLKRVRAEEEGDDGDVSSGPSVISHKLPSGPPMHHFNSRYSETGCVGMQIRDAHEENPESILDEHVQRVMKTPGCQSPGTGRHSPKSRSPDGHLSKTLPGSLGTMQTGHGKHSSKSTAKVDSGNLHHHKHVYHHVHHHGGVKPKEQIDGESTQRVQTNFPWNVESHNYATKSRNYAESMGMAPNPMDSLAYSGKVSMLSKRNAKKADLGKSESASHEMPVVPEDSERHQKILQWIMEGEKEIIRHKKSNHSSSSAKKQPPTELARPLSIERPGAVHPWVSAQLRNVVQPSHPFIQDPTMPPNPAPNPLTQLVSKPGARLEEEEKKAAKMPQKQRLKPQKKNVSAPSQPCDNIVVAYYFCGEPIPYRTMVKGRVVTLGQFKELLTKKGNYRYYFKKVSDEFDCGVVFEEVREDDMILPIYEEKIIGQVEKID

B1: GID-2/his: His-tagged fusion protein of Xaxin residues 320-429, expressed in E. coli and purified on nickel agarose (protein)
chain: DSEQQSMSSDADTMSLTDSSVDGIPPYRLRKHYRREMQESANANGRGPLPHIPRTYHMPKDIHVDPEKFAAELISRLEGVLRDREAEQKLEERLKRVRAEEEGDDGDVSS
modifications: left off: small tags and cut ends
notes: His-tagged fusion protein of Xaxin residues 320-429, expressed in E. coli and purified on nickel agarose
With B1 the “binding of GSK-3 beta (nickel agarose, immunoblot)” value (GSK-3 beta [1]) was “bound specifically”, the “GSK-3 beta mediated phosphorylation of the GS-2 peptide” value (GSK-3 beta [2]; 25 nanomolar GSK-3 beta, GID-2/his up to 200-fold molar excess) was “no significant effect” and the “phosphorylation of tau by GSK-3 beta in vitro” value (GSK-3 beta [2]; GID-2/his at a 200-fold molar excess) was “did not inhibit”.

B2: AID: fragment of amino acid residues 489-777 of Xaxin, axin self-interaction domain (protein)
chain: PGTGRHSPKSRSPDGHLSKTLPGSLGTMQTGHGKHSSKSTAKVDSGNLHHHKHVYHHVHHHGGVKPKEQIDGESTQRVQTNFPWNVESHNYATKSRNYAESMGMAPNPMDSLAYSGKVSMLSKRNAKKADLGKSESASHEMPVVPEDSERHQKILQWIMEGEKEIIRHKKSNHSSSSAKKQPPTELARPLSIERPGAVHPWVSAQLRNVVQPSHPFIQDPTMPPNPAPNPLTQLVSKPGARLEEEEKKAAKMPQKQRLKPQKKNVSAPSQPCDNIVVAYYFCGEPIPYR
modifications: left off: large carriers
In the case of B2, the “interaction with FL Xaxin (self-interaction)” value (FL Xaxin) is reported as “sufficient to mediate axin self-interaction”.

B3: carboxyl-terminal fragment: Myc-tagged fragment, amino acid residues 429-713 of Xaxin (protein)
chain: SGPSVISHKLPSGPPMHHFNSRYSETGCVGMQIRDAHEENPESILDEHVQRVMKTPGCQSPGTGRHSPKSRSPDGHLSKTLPGSLGTMQTGHGKHSSKSTAKVDSGNLHHHKHVYHHVHHHGGVKPKEQIDGESTQRVQTNFPWNVESHNYATKSRNYAESMGMAPNPMDSLAYSGKVSMLSKRNAKKADLGKSESASHEMPVVPEDSERHQKILQWIMEGEKEIIRHKKSNHSSSSAKKQPPTELARPLSIERPGAVHPWVSAQLRNVVQPSHPFIQDPTMPPN
modifications: left off: small tags and cut ends
notes: Myc-tagged fragment, amino acid residues 429-713 of Xaxin
With B3 the accumulation of beta-catenin (beta-catenin) was “not observed”, the “binding with GSK-3 beta (co-immunoprecipitation)” value (GSK-3 beta [3]) was “Neither the amino- nor carboxyl-terminal fragments of axin bound” and the “GSK-3 beta-mediated tau phosphorylation (GSK-3 beta activity)” value (GSK-3 beta [4]) was “no effect”. The “effect on axial development / axis formation” value (Xenopus embryos) was “no apparent effect”.

B4: amino-terminal fragment: Myc-tagged fragment, amino acid residues 63-288 of Xaxin (protein)
chain: RPDLDLGYEPEGSASPTPPYLKWAESLHSLLDDQDGIHLFRTFLQQENCADLLDFWFACSGFRKLEPNDSKVEKRLKLAKAIYKKYVLDSNGIVSRQIKPATKSFIKDCVLRQQIDPAMFDQAQMEIQSMMEDNTYPVFLKSDIYLEYTTIGGESPKNYSDQSSGSGTGKGPSGYLPTLNEDEEWRCDQGGEHERERECIPSSLFSQKLALDSSSHCAGSNRRLSD
modifications: left off: small tags and cut ends
notes: Myc-tagged fragment, amino acid residues 63-288 of Xaxin
B4 was tested, and the accumulation of beta-catenin (beta-catenin) was “not observed”, the “binding with GSK-3 beta (co-immunoprecipitation)” value (GSK-3 beta [3]) was “Neither the amino- nor carboxyl-terminal fragments of axin bound” and the “GSK-3 beta-mediated tau phosphorylation (GSK-3 beta activity)” value (GSK-3 beta [4]) was “no effect”. For the same molecule, the “effect on axial development / axis formation” value (Xenopus embryos) was “no apparent effect”.

From US20010052137A1, “Axin domain-like polypeptide inhibitors of glycogen synthase kinase 3 beta activity and activators of wnt signaling” (Trustees of the University of Pennsylvania, priority 2000, published 2001)
